Source: IntAct's records for PubMed 10364224

B1: Tyrosine-protein phosphatase non-receptor type 3 (Homo sapiens), P26045 (parent)
chain: MTSRLRALGGRINNIRTSELPKEKTRSEVICSIHFLDGVVQTFKVTKQDTGQVLLDMVHNHLGVTEKEYFGLQHDDDSVDSPRWLEASKAIRKQLKGGFPCTLHFRVRFFIPDPNTLQQEQTRHLYFLQLKMDICEGRLTCPLNSAVVLASYAVQSHFGDYNSSIHHPGYLSDSHFIPDQNEDFLTKVESLHEQHSGLKQSEAESCYINIARTLDFYGVELHSGRDLHNLDLMIGIASAGVAVYRKYICTSFYPWVNILKISFKRKKFFIHQRQKQAESREHIVAFNMLNYRSCKNLWKSCVEHHTFFQAKKLLPQEKNVLSQYWTMGSRNTKKSVNNQYCKKVIGGMVWNPAMRRSLSVEHLETKSLPSRSPPITPNWRSPRLRHEIRKPRHSSADNLANEMTYITETEDVFYTYKGSLAPQDSDSEVSQNRSPHQESLSENNPAQSYLTQKSSSSVSPSSNAPGSCSPDGVDQQLLDDFHRVTKGGSTEDASQYYCDKNDNGDSYLVLIRITPDEDGKFGFNLKGGVDQKMPLVVSRINPESPADTCIPKLNEGDQIVLINGRDISEHTHDQVVMFIKASRESHSRELALVIRRRAVRSFADFKSEDELNQLFPEAIFPMCPEGGDTLEGSMAQLKKGLESGTVLIQFEQLYRKKPGLAITFAKLPQNLDKNRYKDVLPYDTTRVLLQGNEDYINASYVNMEIPAANLVNKYIATQGPLPHTCAQFWQVVWDQKLSLIVMLTTLTERGRTKCHQYWPDPPDVMNHGGFHIQCQSEDCTIAYVSREMLVTNTQTGEEHTVTHLQYVAWPDHGVPDDSSDFLEFVNYVRSLRVDSEPVLVHCSAGIGRTGVLVTMETAMCLTERNLPIYPLDIVRKMRDQRAMMVQTSSQYKFVCEAILRVYEEGLVQMLDPS

Variants of: B1
Details: with tera_human VCP

Variant	effect of a mutation on the interaction
D811A	increasing interaction

Variants of: B1
Details: with tera_human VCP
Remark: another data set of the same source

Variant	effect of a mutation on the interaction
Y676F;D811A	increasing interaction

Variants of: B1
Details: with tera_mouse Vcp

Variant	effect of a mutation on the interaction
Y676F;D811A	increasing interaction
